# Data from paper PMC8168301.
# Values joined by “and” are separate entries in the source; they are usually repeats but may differ in a detail not shown here. Equal values may be shown once. Read-outs that look alike come from different tables or passages of the source.
# Legend:
# [1] = target: N NTD-LKR (SARS-CoV-2, UniProt P0DTC9 44-247); experiment: fluorescence polarization
# [2] = target: N NTD-LKR-CTD-Carm (SARS-CoV-2, UniProt P0DTC9 44-419); experiment: fluorescence polarization
# [3] = target: T1, N NTD-LKR-CTD (SARS-CoV-2, UniProt P0DTC9 44-369); experiment: fluorescence polarization
# [4] = target: T2, N WT (SARS-CoV-2, UniProt P0DTC9 1-419); experiment: fluorescence polarization
# [5] = target: T3, N NTD (SARS-CoV-2, UniProt P0DTC9 44-176); experiment: fluorescence polarization
# [6] = target: T4, N CTD (SARS-CoV-2, UniProt P0DTC9 248-369); experiment: fluorescence polarization
# [7] = target: T4, N CTD; experiment: fluorescence polarization; remark: listed apart in the source
# [8] = target: N LKR-CTD (SARS-CoV-2, UniProt P0DTC9 177-369); experiment: fluorescence polarization
# [9] = target: T1, N NTD-LKR-CTD; experiment: fluorescence polarization; remark: listed apart in the source
# [10] = target: N NTD;N LKR-CTD (SARS-CoV-2;SARS-CoV-2, UniProt P0DTC9;P0DTC9 44-176;177-369, |); experiment: fluorescence polarization
# [11] = target: T1, N NTD-LKR-CTD; experiment: fluorescence anisotropy
# [12] = target: T2, N WT; experiment: fluorescence anisotropy
# [13] = target: N NTD-LKR;N CTD (SARS-CoV-2;SARS-CoV-2, UniProt P0DTC9;P0DTC9 44-247;248-369, |); experiment: fluorescence polarization
# [14] = target: T3, N NTD; experiment: fluorescence polarization; remark: listed apart in the source
Binder,Kd [1],Kd [2],Kd [3],Kd [4],Kd [5],Kd [6],Kd [7],Kd [8],Kd [9],Kd [10],Kd [11],Kd [12],Kd [13],Kd [14]
GGAAGAUUAAUAAUUUUCC (structured_RNA) [19-nt slRNA],2500 nM and 3000 nM,100 ± 10 nM,220 ± 20 nM,51 ± 4 nM,124000 ± 84000 nM,65000 ± 44000 nM,,,,,,,,
UUUCACCUCCCUUUCAGUUU (ssRNA) [20-nt ssRNA],500 ± 80 nM,6 ± 2 nM,,7 ± 1 nM,,,13000 ± 5000 nM,350 ± 40 nM,6 ± 2 nM,720 ± 90 nM,6 ± 2 nM,7 ± 1 nM,440 ± 40 nM,16000 ± 12000 nM
